How the values were obtained:
[1] = target: 23mer synthetic M2e peptide of A/Fort Worth/1/50 (influenza A virus A/Fort Worth/1/50 (H1N1)); assay: ELISA, 23mer M2e peptide coated at 1 ug/ml
[2] = target: M2 protein of influenza A/Wisconsin/67/05 (H3N2), on inactivated whole virions (influenza A virus A/Wisconsin/67/05 (H3N2)); assay: ELISA, positive control antibody on inactivated whole virions

Chain of TCN-032 (8I10) (antibody) (VH): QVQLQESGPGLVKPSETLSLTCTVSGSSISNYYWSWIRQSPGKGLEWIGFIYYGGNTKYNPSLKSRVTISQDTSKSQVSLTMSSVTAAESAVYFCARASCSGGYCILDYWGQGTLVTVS
Chain of TCN-032 (8I10) (antibody) (VL): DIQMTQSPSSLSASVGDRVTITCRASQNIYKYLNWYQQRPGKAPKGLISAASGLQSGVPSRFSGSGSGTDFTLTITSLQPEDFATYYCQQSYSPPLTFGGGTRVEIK

Row | Substance | EC50 [1] | ELISA virus binding (OD450) [2]
1 | chimeric mouse V-region/human IgG1 kappa 14C2 antibody | 0.01 µg/mL | 
2 | TCN-032 (8I10) (antibody) |  | 3.62 OD450
